We go through two substances from paper PMC10165876.

One may read the Kd as the equilibrium constant for the complex coming apart. Read a low Kd as higher affinity.

In assay [1] the target is MYC-tagged NKp46 (extracellular domain) (human) (UniProt O76036). As to the kind of experiment: MST.
Assay [2] concerns the target NKp46–Ig (ACROBiosystems), used for MST and BLI (human) (UniProt O76036). As to the kind of experiment: MST.

“CRT P domain fused to the Fc region of human Ig (Fc fusion)” yielded a Kd in assay [1] of 41.2 µM.
“influenza haemagglutinin, His-tagged (natural protein)” gave a Kd in assay [2] of 1.46 µM. This lies in the single-digit micromolar range.
